The text below walks through data of patent publication US7422849B1, “Method for determining expression of a PI3 kinase gene” (Ludwig Institute for Cancer Research, priority 1992, dated 2008).

The target in data set [1] is T1, p85α (Bos taurus, UniProt P23727). As to the kind of experiment: Binding of baculovirus expressed p85α to peptide columns. Also noted: made in house; host or cells: Sf9 insect cells (baculovirus pAcC4-p85α); species or system bovine. As for the experimental part: (§1) Proteins were diluted in binding buffer (50 mM phosphate buffer (pH 7.2), 150 mM NaCl, 0.02% Triton X-100, 2 mM EDTA and 200 μM sodium orthovanadate), mixed with the appropriate peptide affinity resin and then allowed to bind for 2 h at 4° C. with rotation. The column material was washed repeatedly (>6×) with 50 column volumes of the same buffer and then with various elution buffers containing NaCl, urea or detergents. Bound proteins were either assayed for PI3-kinase activity or were removed from the column by boiling in SDS-PAGE sample buffer and then analysed by SDS-PAGE.
Baculovirus expressed bovine p85α and p85β were chosen to test these columns (Otsu et al, 1991).

The next data set addresses T2, bovine brain PI3-kinase (Bos taurus, UniProt P23727).
T2 construct: P13-kinase purified from bovine brain is a complex of p85α and p10; from tissue; host or cells: bovine brain
As to the kind of experiment: Binding of partially purified bovine brain PI3-kinase to peptide affinity columns. The method, then: as §1

A short description of data set [2]: PI3-kinase assay on immunoprecipitates from baculovirus infected Sf9 cells. The format is biochemical. Particulars: expressed in Sf9 cells. As for the experimental part:
(§2) The assay for PI3-kinase activity was carried out as described by Whitman et al. (1985).
To clone the p110 coding region into the baculovirus transfer vector p36C (Page, 1989) a Sau 3A1 site (GGATCA) present 10 nucleotides upstream from the initiation codon (see FIG. 9) was changed to a BamHI (GGATCC site by PCR mediated mutagenesis. Briefly, a sense oligonucleotide substituting C for A at position 6 of the Sau3A1 site was used in a PCR reaction with an antisense primer comprising nucleotides (102-124) of the p110 sequence. (see FIG. 9) using Vent polymerase (New England Biolabs). Template DNA was random-primed first strand cDNA prepared from SGBAF-1 cell mRNA as described above; PCR conditions: 94° C. 1 min, 50° C. 1 min, 72° C. 2 min, 35 cycles. The PCR product was digested with BamHl-EcoNl and a 118 bp fragment isolated from a low melting point agarose gel. […] The BamHl-EcoNl fragment of p110/(BamHl) was sequenced and found to agree with that previously determined. […] Cells were harvested and lysed 2 days post-infection in EB lysis buffer (20 mM Tris-HCl (pH 7.4), 50 mM NaCl, 50 mM NaF, 1% NP40, 1 mM EDTA, 500 μM sodium orthovanadate, 2 mM PMSF, 100 Kallikrein inhibitor units of Aprotinin ml^−1) (Kazlauskas and Cooper, 1989) and lysates were analysed by […].

A further data set addresses T3, CSF-1 receptor (Homo sapiens, UniProt P07333).
T3 construct: made in house; host or cells: Sf9 insect cells (baculovirus)
Description: In vitro association of PI3-kinase activity with the CSF-1 receptor. In kind it is binding. Particulars: Sf9 cell lysates, receptor phosphorylated with ATP before incubation. The method, then: This assay was performed essentially as described by Kazlauskas and Cooper (1990). Sf9 cells were infected as already described and lysed 48 h post-infection in EB lysis buffer. CSF-1 receptor was immunoprecipitated from Sf9 cells and collected on Protein A-Sepharose beads. The immunocomplex was then subjected to extensive washing (3 times with EB lysis buffer, twice with kinase buffer; 50 mM HEPES (pH 7.4), 150 mM NaCl, 0.02% Triton X-100, 12 mM MgCl2, 2 mM MnCl2, 10% glycerol, 500 μM sodium orthovanadate) and the receptor phosphorylated for 15 min at 20° C. with ATP. The precipitates were then washed again to remove free ATP and incubated for 2 h at 4° C. with cell lysates prepared from Sf9 cells infected with viruses expressing (i) p85α, (ii) p110 or (iii) co-infected with viruses expressing p85α and p110. The immune complexes were washed and assayed for associated PI3-kinase activity.

Data set [3] in a line: PI3-kinase assay on immunoprecipitates from transfected COS-1 cells. In kind it is biochemical. Particulars: anti-p110 antiserum. As for the experimental part: as §2
For transient expression of p85α in COS-1 cells the coding region for p85α was cloned into the adenovirus late promoter based expression vector pMT2 (Kaufman et al, 1989) as previously described (Otsu et al, 1991). For expression of the p110 cDNA plasmid pSG5-p110 was constructed as follows. The 3.4 kb BamHl-HindIII fragment from cDNA p2.1 was ligated into pSG5 (Stratagene) cut with BamHl and BglII, the HindIII and BglII overhangs of p2.1 and pSG5 respectively, being filled in with Klenow polymerase. This gave construct pSG5.2. Plasmid pBS/race (above) was digested with EcoRl and Hindlll, the 350 bp band gel purified by electroelution (Maniatis et al, 1982) and further digested with Sau3Al and Bsml. This mixture was then added to the gel purified Bsml-BstMl fragment from p2.1 and ligated in a three fragment ligation to pSG5.2 digested with BamHl and BstXl. […] Lysates were analysed by immunoprecipitation with anti-p85α polyclonal antiserum or with anti-p110 C-terminal peptide antiserum. Immunocomplexes collected on Protein A-Sepharose beads were analysed either on 10% SDS-PAGE gels followed by autoradiography or subjected to in vitro PI3-kinase assays as described.

The target of the next data set is Y751 phosphopeptide. As to the kind of experiment: phosphopeptide affinity resin, single incubation; PI3-kinase assay.
The target in the next data set is T4, p85β (Bos taurus, UniProt P23726).
T4 construct: made in house; host or cells: baculovirus / insect cells
Description: Retention of p85β by GST-p110 fragments on glutathione sepharose column. The format is binding. The settings on record: GST fusion protein expressed in bacteria. An excerpt:
(§3) The interation of the p85 and p110 subunits of PI3-kinase are thought to be required for the activity of the kinase in mammalian cells. Thus inhibiting the interaction between the subunits could provide a means of inhibiting the activity of this signal transduction pathway. In order to design reagents to p110 which will block the interaction, it is useful to define the region of […] which binds to the p85 subunits. To do this a series of mutants were constructed which express various domains of the […] protein (FIG. 23B). These fragments were expressed as GST fusion proteins in bacteria. The proteins were then bound to a glutathione sepharose column (Pharmicia) according to the manufacturer's instructions (Panayotou G et al (1992) Embo J 11:4261-4272). The ability of these protein fragments to bind the p85 subunits was assessed by the ability of the column specifically to retain p85 subunits purified from baculovirus (Otsu et al (1991) Cell 65:91-104). […] To further characterise the binding domain, deletion mutants and PCR fragments were made from the p110-N fragment as shown in FIG. 24. […] Removal of a further 20 amino acids from either the amino or carboxy termini led to loss of binding activity. Now that this domain has been identified it allows the design of specific peptides, antibodies or small molecules which can inhibit the interaction between the subunits.

Data set [4] addresses T1, p85α. Description: Retention of p85α by GST-p110 fragments on glutathione sepharose column. The format is binding. Also noted: made in house; host or cells: baculovirus / insect cells. Particulars: GST fusion protein expressed in bacteria.
From the text: as §3

In the next data set the target is T5, bovine p85α (bovine, UniProt P23727 1-724).
T5 construct: Expressed by baculovirus in Sf9 cells or from pMT2-p85α in COS-1 cells, or native from bovine brain; which one is said under assay; also called 85 kD subunit; baculovirus expressed p85α
Description: deletion mutants and PCR fragments of p110-N; retention of p85.
From the text: as §3

For a further data set, the target named is T6, bovine p85β (bovine, UniProt P23726 1-724).
T6 construct: Expressed by baculovirus in Sf9 cells or in COS-1 cells; also called baculovirus expressed p85β
The data set is described as above.
From the text: as §3

Where two headings read alike, the source gives them in different places.

T1 sequence (P23727 whole entry): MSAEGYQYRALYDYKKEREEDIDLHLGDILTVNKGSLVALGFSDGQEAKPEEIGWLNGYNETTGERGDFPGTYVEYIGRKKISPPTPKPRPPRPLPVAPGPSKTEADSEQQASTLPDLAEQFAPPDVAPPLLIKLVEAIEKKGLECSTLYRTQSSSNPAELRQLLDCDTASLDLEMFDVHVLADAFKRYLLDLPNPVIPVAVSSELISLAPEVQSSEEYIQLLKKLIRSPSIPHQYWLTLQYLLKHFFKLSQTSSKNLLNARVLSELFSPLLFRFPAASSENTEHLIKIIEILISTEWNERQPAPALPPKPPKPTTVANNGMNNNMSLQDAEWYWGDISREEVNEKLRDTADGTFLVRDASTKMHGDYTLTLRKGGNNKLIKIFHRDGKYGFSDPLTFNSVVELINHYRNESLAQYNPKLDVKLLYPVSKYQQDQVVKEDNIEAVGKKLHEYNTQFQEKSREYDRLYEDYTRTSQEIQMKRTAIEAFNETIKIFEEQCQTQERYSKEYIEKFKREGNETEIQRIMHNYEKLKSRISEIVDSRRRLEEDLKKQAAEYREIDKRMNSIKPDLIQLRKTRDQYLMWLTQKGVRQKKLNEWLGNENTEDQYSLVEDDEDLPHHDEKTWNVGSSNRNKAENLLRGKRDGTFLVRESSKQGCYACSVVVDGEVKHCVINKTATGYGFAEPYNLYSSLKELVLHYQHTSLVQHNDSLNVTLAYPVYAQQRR
T4 sequence (P23726 whole entry): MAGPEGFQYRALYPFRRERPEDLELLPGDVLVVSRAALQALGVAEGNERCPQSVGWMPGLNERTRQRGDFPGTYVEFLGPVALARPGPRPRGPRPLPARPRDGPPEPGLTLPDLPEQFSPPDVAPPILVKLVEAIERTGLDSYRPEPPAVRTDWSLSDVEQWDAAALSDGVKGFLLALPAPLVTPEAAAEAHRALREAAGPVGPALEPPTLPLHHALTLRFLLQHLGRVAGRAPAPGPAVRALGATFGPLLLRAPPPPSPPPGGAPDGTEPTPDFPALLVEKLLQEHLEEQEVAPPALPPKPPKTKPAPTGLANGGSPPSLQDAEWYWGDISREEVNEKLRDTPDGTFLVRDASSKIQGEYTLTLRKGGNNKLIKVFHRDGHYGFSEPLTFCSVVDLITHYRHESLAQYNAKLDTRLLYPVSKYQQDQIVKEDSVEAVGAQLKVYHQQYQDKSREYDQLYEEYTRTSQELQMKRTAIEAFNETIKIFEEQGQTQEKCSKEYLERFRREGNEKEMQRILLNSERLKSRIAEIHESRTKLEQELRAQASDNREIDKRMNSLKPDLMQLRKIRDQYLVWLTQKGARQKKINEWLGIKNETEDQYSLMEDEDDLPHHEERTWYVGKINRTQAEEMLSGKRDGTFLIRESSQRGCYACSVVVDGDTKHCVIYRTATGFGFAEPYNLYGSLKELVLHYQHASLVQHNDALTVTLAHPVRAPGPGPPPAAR
T6 sequence (P23726 whole entry): as above
T5 sequence (P23727 whole entry): as the sequence (P23727 whole entry) above
T3 sequence (P07333 20-972): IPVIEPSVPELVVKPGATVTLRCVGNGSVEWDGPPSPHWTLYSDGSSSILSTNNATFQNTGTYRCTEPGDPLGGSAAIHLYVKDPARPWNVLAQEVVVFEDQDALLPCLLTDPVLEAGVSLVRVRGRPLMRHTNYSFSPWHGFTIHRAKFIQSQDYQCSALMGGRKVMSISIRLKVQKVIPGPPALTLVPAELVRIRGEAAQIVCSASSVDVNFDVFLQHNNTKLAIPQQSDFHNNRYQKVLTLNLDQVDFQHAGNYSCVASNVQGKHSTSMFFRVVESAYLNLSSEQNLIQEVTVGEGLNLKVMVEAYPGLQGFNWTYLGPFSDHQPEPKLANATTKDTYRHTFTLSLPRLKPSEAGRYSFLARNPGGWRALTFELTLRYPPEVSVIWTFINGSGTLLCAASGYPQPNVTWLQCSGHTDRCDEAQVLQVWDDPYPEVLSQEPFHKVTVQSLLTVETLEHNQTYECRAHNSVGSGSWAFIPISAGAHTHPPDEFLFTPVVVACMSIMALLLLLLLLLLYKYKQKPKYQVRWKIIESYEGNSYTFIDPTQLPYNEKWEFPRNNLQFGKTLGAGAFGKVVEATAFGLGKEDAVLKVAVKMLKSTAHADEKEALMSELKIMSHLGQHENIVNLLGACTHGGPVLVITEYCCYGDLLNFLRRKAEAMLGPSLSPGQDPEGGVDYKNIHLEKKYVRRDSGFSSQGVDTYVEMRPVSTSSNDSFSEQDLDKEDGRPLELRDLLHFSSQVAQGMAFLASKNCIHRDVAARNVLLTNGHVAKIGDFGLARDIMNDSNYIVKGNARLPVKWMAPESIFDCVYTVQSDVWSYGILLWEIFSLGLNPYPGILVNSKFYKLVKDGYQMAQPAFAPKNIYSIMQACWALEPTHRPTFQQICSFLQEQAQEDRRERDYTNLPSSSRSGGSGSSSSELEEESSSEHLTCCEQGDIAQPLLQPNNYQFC
T2 sequence (P23727 whole entry): as the sequence (P23727 whole entry) above
T2 sequence (P32871 whole entry partner): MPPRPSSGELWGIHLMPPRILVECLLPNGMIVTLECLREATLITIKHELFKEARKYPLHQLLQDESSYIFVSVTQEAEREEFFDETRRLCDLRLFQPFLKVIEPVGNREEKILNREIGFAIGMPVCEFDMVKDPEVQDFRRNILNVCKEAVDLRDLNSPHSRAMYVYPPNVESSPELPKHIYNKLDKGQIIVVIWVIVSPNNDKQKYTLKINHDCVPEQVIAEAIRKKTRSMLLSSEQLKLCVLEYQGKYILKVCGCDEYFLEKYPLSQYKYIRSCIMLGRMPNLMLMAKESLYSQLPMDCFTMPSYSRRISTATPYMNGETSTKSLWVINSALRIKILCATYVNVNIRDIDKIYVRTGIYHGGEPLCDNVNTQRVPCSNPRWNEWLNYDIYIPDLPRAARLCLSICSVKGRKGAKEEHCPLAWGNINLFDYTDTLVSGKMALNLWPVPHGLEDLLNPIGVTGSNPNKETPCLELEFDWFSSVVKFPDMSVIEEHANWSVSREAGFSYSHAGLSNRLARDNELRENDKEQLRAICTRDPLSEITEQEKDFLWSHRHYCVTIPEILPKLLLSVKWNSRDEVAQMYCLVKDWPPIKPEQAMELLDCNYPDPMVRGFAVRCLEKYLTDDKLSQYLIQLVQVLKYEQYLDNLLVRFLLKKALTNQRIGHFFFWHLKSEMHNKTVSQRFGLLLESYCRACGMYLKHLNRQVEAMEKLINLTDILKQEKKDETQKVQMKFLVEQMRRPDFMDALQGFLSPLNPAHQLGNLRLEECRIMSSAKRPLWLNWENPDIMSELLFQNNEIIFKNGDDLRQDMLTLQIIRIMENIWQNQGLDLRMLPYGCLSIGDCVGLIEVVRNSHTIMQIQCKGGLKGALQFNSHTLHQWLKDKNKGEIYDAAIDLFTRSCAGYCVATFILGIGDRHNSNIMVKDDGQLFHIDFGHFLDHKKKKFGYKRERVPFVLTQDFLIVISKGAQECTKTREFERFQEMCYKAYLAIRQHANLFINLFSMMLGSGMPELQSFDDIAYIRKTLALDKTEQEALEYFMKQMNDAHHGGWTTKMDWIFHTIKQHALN

Take “A R D I M R D S N Y I S K G S T F (ARDIMRDSNYISKGSTF) [Peptide Y587, 17 amino acid phosphopeptide around the second major tyrosine phosphorylation site in the PDGF β-receptor]”: in the data set with p85α [1] (Sf9 cell lysate, SDS-PAGE of bound proteins), the “binding of baculovirus expressed p85α to the peptide column” value is reported as “bind both columns to a similar extent”. With “D M S K D E S V D Y V P M L D M K [Y751 phosphopeptide]”, the “PI3-kinase activity removed from Mono Q peaks 1 or peak 2 by the column” value at bovine brain PI3-kinase is recorded as more than 90%. For the same molecule, at p85α [1], the “binding of baculovirus expressed p85α to the peptide column” value is on record as “bind both columns to a similar extent”. Take “p85α: 85 kD subunit of PI3-kinase, baculovirus expressed”: the “PI3-kinase activity of immunoprecipitates” value in [2] was “inactive”. Moreover, the “association of PI3-kinase activity with CSF-1 receptor” value in the data set with CSF-1 receptor is recorded as “No PI3-kinase activity associates”. Take “p110: bovine PI3-kinase 110 kD subunit, 1068 amino acids, calculated molecular mass 124,247”: the “PI3-kinase activity of immunoprecipitates” value in data set [2] is given as “significant levels of PI3-kinase activity”. The “PI3-kinase activity of anti-p110 immunoprecipitates” value in data set [3] was “no activity above that present in control immunoprecipitates”. Moreover, the “association of PI3-kinase activity with CSF-1 receptor” value in the data set with CSF-1 receptor is “No PI3-kinase activity associates”.

As for “partially purified bovine brain PI3-kinase (p85α/p110 complex) (from UniProt P23727 2-724; P32871 1-1068) (enzyme)”, the PI3-kinase activity removed by the column in the data set with Y751 phosphopeptide was more than 90%.

B1: p110-N: GST fusion of human p110 fragment αα1-128 (protein)
chain: MPPRPSSGELWGIHLMPPRILVECLLPNGMIVTLECLREATLITIKHELFKEARKYPLHQLLQDESSYIFVSVTQEAEREEFFDETRRLCDLRLFQPFLKVIEPVGNREEKILNREIGFAIGMPVCEF
modifications: left off: a dimerising Fc or GST
For the molecule B1, the “ability of p110 fragment to bind p85β subunit” value with p85β is “capable of binding”. Also, the “ability of p110 fragment to bind p85α subunit” value in the data set with p85α [4] was “capable of binding”.

B2: human p110 19-110 with a further 20 amino acids removed from the amino terminus (other)
chain: EATLITIKHELFKEARKYPLHQLLQDESSYIFVSVTQEAEREEFFDETRRLCDLRLFQPFLKVIEPVGNREE
notes: Limits 39-110 are calculated from 'Removal of a further 20 amino acids'
As to B2, the binding result with bovine p85α and with bovine p85β was “no binding” throughout.

B3: amino acids 19-110 of human p10: domain of human p110, amino acids 19-110, from deletion mutants of p110-N (protein, UniProt P42336 19-110, looked up, fragment)
chain: RILVECLLPNGMIVTLECLREATLITIKHELFKEARKYPLHQLLQDESSYIFVSVTQEAEREEFFDETRRLCDLRLFQPFLKVIEPVGNREE
As for B3, in the data set with p85β, the “ability of p110 fragment to bind p85β subunit” value is listed as “sufficient to associate with the p85 subunits”. Moreover, the “ability of p110 fragment to bind p85α subunit” value in the data set with p85α [4] is “sufficient to associate with the p85 subunits”.

B4: human p110 19-110 with a further 20 amino acids removed from the carboxy terminus (other)
chain: RILVECLLPNGMIVTLECLREATLITIKHELFKEARKYPLHQLLQDESSYIFVSVTQEAEREEFFDETRRLC
notes: Limits 19-90 are calculated from 'Removal of a further 20 amino acids'
In the case of B4, the binding result with bovine p85α and in the data set with bovine p85β was “no binding” throughout.
